Experimental data reported in PMC3844621.

Legend:
[1] = biological target: T1 scTCR with wild-type CDR loops (stabilized version), Y51A, soluble (human); test: SPR
[2] = biological target: T1-S18.45 Q31A scTv, yeast-displayed (human); test: flow cytometry on cells

Row | Kd [1] | other [2] | Substance
1 | > 1 mM |  | MART-1/HLA-A2 of the steady-state SPR (peptide variant not stated) (from UniProt P61769 21-119) (peptide-MHC)
2 |  | > 15 fold | MART-1/HLA-A2-biotin monomer (UV peptide exchange) (from UniProt P61769 21-119) (peptide-MHC)
